# “Also recorded” adds a separate entry of the source.
# T1: binding of GREM1 to ACVR1C (Homo sapiens, UniProt O60565)
# T1 construct: his-tagged full-length GREM1 were purified; His; made in house
# T1 sequence (O60565 25-184): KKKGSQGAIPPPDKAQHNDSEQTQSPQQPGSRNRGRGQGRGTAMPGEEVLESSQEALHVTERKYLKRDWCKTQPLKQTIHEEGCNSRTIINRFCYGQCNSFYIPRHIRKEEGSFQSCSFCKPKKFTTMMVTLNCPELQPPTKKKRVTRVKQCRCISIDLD
# T2: GREM1 (Homo sapiens (Human), UniProt O60565 25-184, limits assumed)
# T2 construct: also called Gremlin1
# T2 sequence: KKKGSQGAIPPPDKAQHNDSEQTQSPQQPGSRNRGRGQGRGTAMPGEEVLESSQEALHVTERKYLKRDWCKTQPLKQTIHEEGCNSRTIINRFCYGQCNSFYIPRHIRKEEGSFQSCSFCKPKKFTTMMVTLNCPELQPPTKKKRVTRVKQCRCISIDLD
# Columns and labels:
# [1] = target: T1, binding of GREM1 to ACVR1C; assay: Pull-down experiment: Fc-tagged ACVR1C-ECD and his-tagged full-length GREM1 with ACVR1C peptide; conditions: purified Fc-tagged ACVR1C-ECD (AA 1-113) and his-tagged full-length GREM1; FIG. 11b
# Method: The Fc-tagged ACVR1C extracellular domain (ACVR1C-ECD, AA 1-113) and his-tagged full-length GREM1 were purified, and ACVR1C peptide (with an amino acid sequence of TECCFTDFCNNITLHLPTA, SEQ ID NO: 7) which blocked the binding of ACVR1C to GREM1 ligand thereof was synthesized (FIG. 11a). The Pull-down experiment was performed.
# [2] = tested on: HCT116-luc cells (colorectal liver metastasis); assay: Colorectal liver metastasis model: HCT116-luc cells injected through the spleen, live bioluminescence imaging; format: in vivo; conditions: NOG mice, PLV-GREM1 HCT116-luc cells via spleen, 10 mg/kg by tail vein once every 2 days
# Method: Grouping: a total of 18 6-week-old NOG mice were taken and randomized into 3 groups 5 days after adaptive feeding: control group (PLV), GREM1 overexpression group (PLV-GREM1) and ACVR1C polypeptide treatment group (PLV-GREM1+ACVR1C peptide), 6/group.
# Modeling: HCT116-luc cell suspensions were prepared with cell densities adjusted to 1×10^7 cells/mL. The mice to be treated were taken out and anesthetized by intraperitoneal injection of 2% sodium pentobarbital at a dose of 45 μL/20 g. After about 5 minutes, the mice began to enter a quiet state. White gauze was spread on a mouse board, the mice were placed in left lying position, the abdominal hair of the mice was shaved, and the abdominal side was disinfected from the neck to the groin with alcohol cotton pads. The skin was cut open 1-2 cm below the lower edge of the left costal arch to expose the abdominal wall muscles. The abdominal wall muscles were pulled with pointed forceps to avoid the spleen in the abdominal cavity. The abdominal wall muscles were cut open to expose the internal organs. The pancreas was gently pulled with circular forceps, and the spleen was pulled out. […]
# GREM1 = target: T2, GREM1; assay: co-IP in HCT116 cells
# From the text: To further describe the binding sites between GREM1 and ACVR1C, a truncated GREM1 and ACVR1C extracellular domain (ACVR1C-ECD) is constructed.
binding result (GREM1),Molecule,inhibition of the binding of GREM1 to ACVR1C (pull-down) [1],inhibition of liver metastasis of colorectal cancer cells (bioluminescence imaging) ([2]; FIG. 12),"inhibition of liver metastasis of colorectal cancer cells (bioluminescence imaging) ([2]; FIG. 12, listed as polypeptide)"
,TECCFTDFCNNITLHLPTA [ACVR1C peptide],competitively inhibited the binding of GREM1 to ACVR1C; also recorded: can interfere or block the binding of GREM1 to ACVR1C,significantly lower than that in a control group,significantly inhibits liver metastasis of colorectal cancer cells; also recorded: significantly inhibit the colorectal cancer metastasis
no binding,ELSPGLKCVCLLCDSSNFTCQTEGACWASVMLTNGKEQVIKSCVSLP (receptor) [truncated ACVR1C-ECD lacking amino acids 68-113 (A4)],,,

# Source: patent publication US20250304621A1, “POLYPEPTIDE FOR SPECIFICALLY BLOCKING BINDING OF ACVR1C TO GREM1 AND USE THEREOF” (The Seventh Affiliated Hospital, Sun Yat-Sen University, priority 2024, published 2025)
